# In paper PMC13638050:
# Key:
# [1] = target: influenza B/Lee/1940 (B/Lee40) HA (influenza B virus B/Lee/1940); experiment: BLI
# [2] = target: H3N2 A/Singapore/INFIMH-16-0019/2016 (H3/Sing16) HA (influenza A virus H3N2 A/Singapore/INFIMH-16-0019/2016); experiment: BLI
# Sequence of influenza B/Lee/1940 (B/Lee40) HA (influenza B virus B/Lee/1940) (P03460 16-552 limits assumed): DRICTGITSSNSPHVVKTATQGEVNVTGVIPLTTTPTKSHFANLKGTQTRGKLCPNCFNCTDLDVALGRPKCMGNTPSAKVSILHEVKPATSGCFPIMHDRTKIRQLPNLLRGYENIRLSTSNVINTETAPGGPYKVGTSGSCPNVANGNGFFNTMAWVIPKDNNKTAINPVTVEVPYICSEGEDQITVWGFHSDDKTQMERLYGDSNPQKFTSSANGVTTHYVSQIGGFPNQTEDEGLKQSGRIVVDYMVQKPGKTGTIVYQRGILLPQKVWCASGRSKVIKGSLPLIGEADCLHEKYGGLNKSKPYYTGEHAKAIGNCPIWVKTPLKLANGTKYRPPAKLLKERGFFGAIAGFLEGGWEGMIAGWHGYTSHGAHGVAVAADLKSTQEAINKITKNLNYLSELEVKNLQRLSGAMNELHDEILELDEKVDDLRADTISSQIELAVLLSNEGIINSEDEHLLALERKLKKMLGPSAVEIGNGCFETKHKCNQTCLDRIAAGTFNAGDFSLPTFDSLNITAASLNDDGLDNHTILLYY
substance,measurement,setting,value
somatic CR9114 Fab,Kd,[1],110 nM
same,Kd,[2],36 nM
